According to patent US20100015650:

Target: T1, BRB1 tyrosine kinase substrate peptide
T1 chain: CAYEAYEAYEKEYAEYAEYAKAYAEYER

B1: FES (protein)
chain: MGFSSELCSPQGHGVLQQMQEAELRLLEGMRKWMAQRVKSDREYAGLLHHMSLQDSGGQSRAISPDSPISQSWAEITSQTEGLSRLLRQHAEDLNSGPLSKLSLLIRERQQLRKTYSEQWQQLQQELTKTHSQDIEKLKSQYRALARDSAQAKRKYQEASKDKDRDKAKDKYVRSLWKLFAHHNRYVLGVRAAQLHHQHHHQLLLPGLLRSLQDLHEEMACILKEILQEYLEISSLVQDEVVAIHREMAAAAARIQPEAEYQGFLRQYGSAPDVPPCVTFDESLLEEGEPLEPGELQLNELTVESVQHTLTSVTDELAVATEMVFRRQEMVTQLQQELRNEEENTHPRERVQLLGKRQVLQEALQGLQVALCSQAKLQAQQELLQTKLEHLGPGEPPPVLLLQDDRHSTSSSEQEREGGRTPTLEILKSHISGIFRPKFSLPPPLQLIPEVQKPLHEQLWYHGAIPRAEVAELLVHSGDFLVRESQGKQEYVLSVLWDGLPRHFIIQSLDNLYRLEGEGFPSIPLLIDHLLSTQQPLTKKSGVVLHRAVPKDKWVLNHEDLVLGEQIGRGNFGEVFSGRLRADNTLVAVKSCRETLPPDLKAKFLQEARILKQYSHPNIVRLIGVCTQKQPIYIVMELVQGGDFLTFLRTEGARLRVKTLLQMVGDAAAGMEYLESKCCIHRDLAARNCLVTEKNVLKISDFGMSREEADGVYAASGGLRQVPVKWTAPEALNYGRYSSESDVWSFGILLWETFSLGASPYPNLSNQQTREFVEKGGRLPCPELCPDAVFRLMEQCWAYEPGQRPSFSTIYQELQSIRKRHR
Signal to Noise Ratio with BRB1 Peptide (TR-FRET kinase assay; kinase 1 nM): 24.9

B2: CTK (protein)
chain: MAGRGSLVSWRAFHGCDSAEELPRVSPRFLRAWHPPPVSARMPTRRWAPGTQCITKCEHTRPKPGELAFRKGDVVTILEACENKSWYRVKHHTSGQEGLLAAGALREREALSADPKLSLMPWFHGKISGQEAVQQLQPPEDGLFLVRESARHPGDYVLCVSFGRDVIHYRVLHRDGHLTIDEAVFFCNLMDMVEHYSKDKGAICTKLVRPKRKHGTKSAEEELARAGWLLNLQHLTLGAQIGEGEFGAVLQGEYLGQKVAVKNIKCDVTAQAFLDETAVMTKMQHENLVRLLGVILHQGLYIVMEHVSKGNLVNFLRTRGRALVNTAQLLQFSLHVAEGMEYLESKKLVHRDLAARNILVSEDLVAKVSDFGLAKAERKGLDSSRLPVKWTAPEALKHGKFTSKSDVWSFGVLLWEVFSYGRAPYPKMSLKEVSEAVEKGYRMEPPEGCPGPVHVLMSSCWEAEPARRPPFRKLAEKLARELRSAGAPASVSGQDADGSTSPRSQEP
Signal to Noise Ratio with BRB1 Peptide (TR-FRET kinase assay; kinase 20 nM): 2.5

B3: FER (protein)
chain: KSGVVLLNPIPKDKKWILSHEDVILGELLGKGNFGEVYKGTLKDKTSVAVKTCKEDLPQELKIKFLQEAKILKQYDHPNIVKLIGVCTQRQPVYIIMELVSGGDFLTFLRRKKDELKLKQLVKFSLDAAAGMLYLESKNCIHRDLAARNCLVGENNVLKISDFGMSRQEDGGVYSSSGLKQIPIKWTAPEALNYGRYSSESDVWSFGILLWETFSLGVCPYPGMTNQQAREQVERGYRMSAPQHCPEDISKIMMKCWDYKPENRPKFSELQKELTIIKRKLT
Signal to Noise ratio with BRB1 Peptide (TR-FRET kinase assay; kinase 0.25 nM): 31

B4: SRM (protein)
chain: MEPFLRRRLAFLSFFWDKIWPAGGEPDHGTPGSLDPNTDPVPTLPAEPCSPFPQLFLALYDFTARCGGELSVRRGDRLCALEEGGGYIFARRLSGQPSAGLVPITHVAKASPETLSDQPWYFSGVSRTQAQQLLLSPPNEPGAFLIRPSESSLGGYSLSVRAQAKVCHYRVSMAADGSLYLQKGRLFPGLEELLTYYKANWKLIQNPLLQPCMPQKAPRQDVWERPHSEFALGRKLGEGYFGEVWEGLWLGSLPVAIKVIKSANMKLTDLAKEIQTLKGLRHERLIRLHAVCSGGEPVYIVTELMRKGNLQAFLGTPEGRALRLPPLLGFACQVAEGMSYLEEQRVVHRDLAARNVLVDDGLACKVADFGLARLLKDDIYSPSSSSKIPVKWTAPEAANYRVFSQKSDVWSFGVLLHEVFTYGQCPYEGMTNHETLQQIMRGYRLPRPAACPAEVYVLMLECWRSSPEERPSFATLREKLHAIHRCHP
Signal to Noise ratio with BRB1 Peptide (TR-FRET kinase assay; kinase 0.5 nM): 32.5

B5: FRK (protein)
chain: MSNICQRLWEYLEPYLPCLSTEADKSTVIENPGALCSPQSQRHGHYFVALFDYQARTAEDLSFRAGDKLQVLDTLHEGWWFARHLEKRRDGSSQQLQGYIPSNYVAEDRSLQAEPWFFGAIGRSDAEKQLLYSENKTGSFLIRESESQKGEFSLSVLDGAVVKHYRIKRLDEGGFFLTRRRIFSTLNEFVSHYTKTSDGLCVKLGKPCLKIQVPAPFDLSYKTVDQWEIDRNSIQLLKRLGSGQFGEVWEGLWNNTTPVAVKTLKPGSMDPNDFLREAQIMKNLRHPKLIQLYAVCTLEDPIYIITELMRHGSLQEYLQNDTGSKIHLTQQVDMAAQVASGMAYLESRNYIHRDLAARNVLVGEHNIYKVADFGLARVFKVDNEDIYESRHEIKLPVKWTAPEAIRSNKFSIKSDVWSFGILLYEIITYGKMPYSGMTGAQVIQMLAQNYRLPQPSNCPQQFYNIMLECWNAEPKERPTFETLRWKLEDYFETDSSYSDANNFIR
Signal to Noise ratio with BRB1 Peptide (TR-FRET kinase assay; kinase 0.5 nM): 9.7

B6: FAK (protein)
chain: LANSEKQGMRTHAVSVSETDDYAEIIDEEDTYTMPSTRDYEIQRERIELGRCIGEGQFGDVHQGIYMSPENPALAVAIKTCKNCTSDSVREKFLQEALTMRQFDHPHIVKLIGVITENPVWIIMELCTLGELRSFLQVRKYSLDLASLILYAYQLSTALAYLESKRFVHRDIAARNVLVSSNDCVKLGDFGLSRYMEDSTYYKASKGKLPIKWMAPESINFRRFTSASDVWMFGVCMWEILMHGVKPFQGVKNNDVIGRIENGERLPMPPNCPPTLYSLMTKCWAYDPSRRPRFTELKAQLSTILEEEKAQQEERMRMESRRQATVSWDSGGSDEAPPKPSRPGYPSPRSSEGFYPSPQHMVQTNHYQVSGYPGSHGITAMAGSIYPGQASLLDQTDSWNHRPQEIAMWQPNVEDSTVLDLRGIGQVLPTHLMEERLIRQQQEMEEDQRWLEKEERFLKPDVRLSRGSIDREDGSLQGPIGNQHIYQPVGKPDPAAPPKKPPRPGAPGHLGSLASLSSPADSYNEGVKLQPQEISPPPTANLDRSNDKVYENVTGLVKAVIEMSSKIQPAPPEEYVPMVKEVGLALRTLLATVDETIPLLPASTHREIEMAQKLLNSDLGELINKMKLAQQYVMTSLQQEYKKQMLTAAHALAVDAKNLLDVIDQARLKMLGQTRPH
Signal to Noise Ratio with BRB1 Peptide (TR-FRET kinase assay; kinase 3 nM): 1.7

B7: JAK3 (protein)
chain: ALAPRDGLWNGAQLYACQDPTIFEERHLKYISQLGKGNFGSVELCRYDPLGDNTGALVAVKQLQHSGPDQQRDFQREIQILKALHSDFIVKYRGVSYGPGRQSLRLVMEYLPSGCLRDFLQRHRARLDASRLLLYSSQICKGMEYLGSRRCVHRDLAARNILVESEAHVKIADFGLAKLLPLDKDYYVVREPGQSPIFWYAPESLSDNIFSRQSDVWSFGVVLYELFTYCDKSCSPSAEFLRMMGCERDVPALCRLLELLEEGQRLPAPPACPAEVHELMKLCWAPSPQDRPSFSALGPQLDMLWSGSRGCETHAFTAHPEGKHHSLSFS
Signal to Noise ratio with BRB1 Peptide (TR-FRET kinase assay; kinase 0.5 nM): 16.1

B8: ITK (protein)
chain: NNFILLEEQLIKKSQQKRRTSPSNFKVRFFVLTKASLAYFEDRHGKKRTLKGSIELSRIKCVEIVKSDISIPCHYKYPFQVVHDNYLLYVFAPDRESRQRWVLALKEETRNNNSLVPKYHPNFWMDGKWRCCSQLEKLATGCAQYDPTKNASKKPLPPTPEDNRRPLWEPEETVVIALYDYQTNDPQELALRRNEEYCLLDSSEIHWWRVQDRNGHEGYVPSSYLVEKSPNNLETYEWYNKSISRDKAEKLLLDTGKEGAFMVRDSRTAGTYTVSVFTKAVVSENNPCIKHYHIKETNDNPKRYYVAEKYVFDSIPLLINYHQHNGGGLVTRLRYPVCFGRQKAPVTAGLRYGKWVIDPSELTFVQEIGSGQFGLVHLGYWLNKDKVAIKTIREGAMSEEDFIEEAEVMMKLSHPKLVQLYGVCLEQAPICLVFEFMEHGCLSDYLRTQRGLFAAETLLGMCLDVCEGMAYLEEACVIHRDLAARNCLVGENQVIKVSDFGMTRFVLDDQYTSSTGTKFPVKWASPEVFSFSRYSSKSDVWSFGVLMWEVFSEGKIPYENRSNSEVVEDISTGFRLYKPRLASTHVYQIMNHCWKERPEDRPAFSRLLRQLAEIAESGL
Signal to Noise ratio with BRB1 Peptide (TR-FRET kinase assay; kinase 0.5 nM): 8.4

B9: LYNb (protein)
chain: MGCIKSKGKDSLSDDGVDLKTQPVPESQLLPGQRFQTKDPEEQGDIVVALYPYDGIHPDDLSFKKGEKMKVLEEHGEWWKAKSLLTKKEGFIPSNYVAKLNTLETEEWFFKDITRKDAERQLLAPGNSAGAFLIRESETLKGSFSLSVRDFDPVHGDVIKHYKIRSLDNGGYYISPRITFPCISDMIKHYQKQADGLCRRLEKACISPKPQKPWDKDAWEIPRESIKLVKRLGAGQFGEVWMGYYNNSTKVAVKTLKPGTMSVQAFLEEANLMKTLQHDKLVRLYAVVTREEPIYIITEYMAKGSLLDFLKSDEGGKVLLPKLIDFSAQIAEGMAYIERKNYIHRDLRAANVLVSESLMCKIADFGLARVIEDNEYTAREGAKFPIKWTAPEAINFGCFTIKSDVWSFGILLYEIVTYGKIPYPGRTNADVMTALSQGYRMPRVENCPDELYDIMKMCWKEKAEERPTFDYLQSVLDDFYTATEGQYQQQP
Signal to Noise Ratio with BRB1 Peptide (TR-FRET kinase assay; kinase 1 nM): 33.1

B10: JAK2 (protein)
chain: RIGALGFSGAFEDRDPTQFEERHLKFLQQLGKGNFGSVEMCRYDPLQDNTGEVVAVKKLQHSTEEHLRDFEREIEILKSLQHDNIVKYKGVCYSAGRRNLKLIMEYLPYGSLRDYLQKHKERIDHIKLLQYTSQICKGMEYLGTKRYIHRDLATRNILVENENRVKIGDFGLTKVLPQDKEYYKVKEPGESPIFWYAPESLTESKFSVASDVWSFGVVLYELFTYIEKSKSPPAEFMRMIGNDKQGQMIVFHLIELLKNNGRLPRPDGCPDEIYMIMTECWNNNVNQRPSFRDLALRVDQIRDNMAG
Signal to Noise Ratio with BRB1 Peptide (TR-FRET kinase assay; kinase 1 nM): 35.5

B11: TEC (protein)
chain: MNFNTILEEILIKRSQQKKKTSPLNYKERLFVLTKSMLTYYEGRAEKKYRKGFIDVSKIKCVEIVKNDDGVIPCQNKYPFQVVHDANTLYIFAPSPQSRDLWVKKLKEEIKNNNNIMIKYHPKFWTDGSYQCCRQTEKLAPGCEKYNLFESSIRKALPPAPETKKRRPPPPIPLEEEDNSEEIVVAMYDFQAAEGHDLRLERGQEYLILEKNDVHWWRARDKYGNEGYIPSNYVTGKKSNNLDQYEWYCRNMNRSKAEQLLRSEDKEGGFMVRDSSQPGLYTVSLYTKFGGEGSSGFRHYHIKETTTSPKKYYLAEKHAFGSIPEIIEYHKHNAAGLVTRLRYPVSVKGKNAPTTAGFSYEKWEINPSELTFMRELGSGLFGVVRLGKWRAQYKVAIKAIREGAMCEEDFIEEAKVMMKLTHPKLVQLYGVCTQQKPIYIVTEFMERGCLLNFLRQRQGHFSRDVLLSMCQDVCEGMEYLERNSFIHRDLAARNCLVSEAGVVKVSDFGMARYVLDDQYTSSSGAKFPVKWCPPEVFNYSRFSSKSDVWSFGVLMWEVFTEGRMPFEKYTNYEVVTMVTRGHRLYQPKLASNYVYEVMLRCWQEKPEGRPSFEDLLRTIDELVECEETFGR
Signal to Noise ratio with BRB1 Peptide (TR-FRET kinase assay; kinase 0.5 nM): 18.6
